Patent US8894997B2

Columns and labels:
[1] = target: 1918 HA displayed on virus-like particles, reconstituted 1918 virus or transfected mammalian cells (influenza A/South Carolina/1/18 (H1N1) virus)
[2] = target: HA of A/Mexico/4108/2009 virus (influenza A/Mexico/4108/2009 (H1N1) virus)
[3] = target: Recombinant A/South Carolina/1/1918 virus HA (influenza A/South Carolina/1/18 (H1N1) virus)
[4] = target: 1918 HA displayed on virus-like particles, reconstituted 1918 virus or transfected mammalian cells (influenza A/South Carolina/1/18 (H1N1) virus); remark: listed apart in the source
[5] = target: HA of influenza A/Swine/Iowa/15/30 (H1N1) virus (influenza A/Swine/Iowa/15/30 (H1N1) virus)
[6] = target: HA of influenza A/USSR/92/77 (H1N1) virus (influenza A/USSR/92/77 (H1N1) virus)
[7] = target: HA of influenza A/Weiss/43 (H1N1) virus (influenza A/Weiss/43 (H1N1) virus)

Substance	HAI, reciprocal titer of serum (reciprocal titer) [1]	HAI, reciprocal titer of serum (reciprocal titer) [2]	Kd [3] [nM]	koff [3] [s⁻¹]	kon [3] [M⁻¹ s⁻¹]	Specific HAI activity [4] [µg/mL]	Specific HAI activity [5] [µg/mL]	HAI, specific activity [1] [µg/mL]	HAI, specific activity [2] [µg/mL]	Neut Ab, specific activity [2] [µg/mL]	Specific HAI activity [6] [µg/mL]	specific neutralizing activity [6] [µg/mL]	specific neutralizing activity [7] [µg/mL]
Normal mouse serum (polyclonal serum or antibody)	< 10	< 10											
mAb 1F1 (antibody)			5.4	0.00017	31000	0.08	0.04	0.04	> 5	> 5	0.16	0.88	1.8
